Article PMC5374059 (Journal of molecular biology, 2016)
Ends that are not written are not given here. Me3 = trimethyl-lysine; Me2 = dimethyl

T1: Set3 PHD finger (aa 116-184), crystallised (yeast, UniProt P36124 116-184)
T1 sequence (looked up): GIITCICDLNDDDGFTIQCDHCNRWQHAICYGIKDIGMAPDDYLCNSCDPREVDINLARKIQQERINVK

T2: M132T mutant of MLL5 PHD (human, UniProt Q8IZD2 117-181, M132T)
T2 sequence (looked up): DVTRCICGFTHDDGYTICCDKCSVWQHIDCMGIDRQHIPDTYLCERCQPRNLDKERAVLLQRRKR


Key:
[1] = target: Set3 PHD finger (wild type, as used in fluorescence and NMR titrations) (yeast) (UniProt P36124); assay: NMR titration
[2] = target: Set3 PHD finger (wild type, as used in fluorescence and NMR titrations) (yeast) (UniProt P36124); assay: other fluorescence titration
[3] = target: T131M mutant of Set3 PHD (yeast) (UniProt P36124); assay: other fluorescence titration
[4] = target: T1, Set3 PHD finger (aa 116-184), …; assay: crystal structure
M132T mutant of MLL5 PHD = target: T2, M132T mutant of MLL5 PHD; assay: NMR titration

Kd [1] [µM] | Kd [2] [µM] | Kd [3] [µM] | binding result [4] | Molecule | further results
1400 |  |  |  | histone H3K4me0 peptide (unmodified, residues 1-12 of histone H3) (from UniProt P61830 2-13) | 
790 |  |  |  | histone H3K4me1 peptide (residues 1-12 of histone H3) (from UniProt P61830 2-13) | 
 | 30 | 8 |  | histone H3K4me2 peptide (residues 1-12 of histone H3) (from UniProt P61830 2-13) | 
 | 20 | 2.5 |  | histone H3K4me3 peptide (residues 1-12 of histone H3) (from UniProt P61830 2-13) | 
 |  |  | binds | ARTK(Me2)QTARKSTG (peptide, UniProt P61830 2-13, looked up) [histone H3K4me2 peptide (residues 1-12 of histone H3)] | 
 |  |  | binds | ARTK(Me3)QTARKSTG (peptide, UniProt P61830 2-13, looked up) [histone H3K4me3 peptide (residues 1-12 of histone H3)] | fold selectivity for H3K4me3 over H3K4me2 (M132T mutant of MLL5 PHD): 1.5 fold
